T1: human IGFBP1 (human, UniProt P08833 26-259)
T1 construct: Bought protein
T1 sequence (looked up): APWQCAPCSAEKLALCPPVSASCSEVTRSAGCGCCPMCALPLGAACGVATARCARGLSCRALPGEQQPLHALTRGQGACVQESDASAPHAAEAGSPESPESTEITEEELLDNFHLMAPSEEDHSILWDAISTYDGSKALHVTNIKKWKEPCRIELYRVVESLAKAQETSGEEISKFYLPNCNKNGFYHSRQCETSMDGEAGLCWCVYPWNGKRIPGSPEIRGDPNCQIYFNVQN

T2: human IGFBP2 (human, UniProt P18065 37-325, limits assumed)
T2 construct: Bought protein
T2 sequence (looked up): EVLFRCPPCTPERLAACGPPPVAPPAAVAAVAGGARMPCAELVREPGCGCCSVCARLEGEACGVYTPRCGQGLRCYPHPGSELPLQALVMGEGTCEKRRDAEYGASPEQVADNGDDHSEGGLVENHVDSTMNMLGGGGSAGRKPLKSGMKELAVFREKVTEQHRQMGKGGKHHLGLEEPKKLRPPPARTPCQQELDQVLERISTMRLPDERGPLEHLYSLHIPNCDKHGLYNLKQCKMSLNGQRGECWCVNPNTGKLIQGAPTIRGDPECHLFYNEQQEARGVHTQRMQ

T3: human IGFBP4 (human, UniProt P22692 22-258)
T3 construct: Bought protein
T3 sequence (looked up): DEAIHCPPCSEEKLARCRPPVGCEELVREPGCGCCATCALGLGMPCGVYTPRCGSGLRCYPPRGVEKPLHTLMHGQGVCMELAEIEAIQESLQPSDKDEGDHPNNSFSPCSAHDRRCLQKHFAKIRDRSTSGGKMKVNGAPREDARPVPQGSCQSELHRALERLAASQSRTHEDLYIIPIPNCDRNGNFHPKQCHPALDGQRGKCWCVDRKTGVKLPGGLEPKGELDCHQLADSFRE

T4: human IGFBP6 (human, UniProt P24592 28-240, limits assumed)
T4 construct: Bought protein
T4 sequence (looked up): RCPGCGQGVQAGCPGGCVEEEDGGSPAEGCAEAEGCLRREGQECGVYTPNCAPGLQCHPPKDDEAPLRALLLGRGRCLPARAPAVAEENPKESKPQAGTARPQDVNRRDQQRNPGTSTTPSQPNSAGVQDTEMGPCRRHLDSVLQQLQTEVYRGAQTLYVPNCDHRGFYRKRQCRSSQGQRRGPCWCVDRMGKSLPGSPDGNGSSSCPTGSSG

B1: F04 scFv (scFv, V domains shown)
VH: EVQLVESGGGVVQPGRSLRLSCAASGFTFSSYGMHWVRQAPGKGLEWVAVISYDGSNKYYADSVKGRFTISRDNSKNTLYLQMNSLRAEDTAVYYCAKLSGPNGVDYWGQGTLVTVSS
VL: SSELTQDPSVSVALGQTVTITCQGDSVRKYYTNWYQQKPGQAPILVLYGKNYRPSGIPDRFSGSTSGDTAYLTITGAQAEDAADYYCHSRDTSDIHLNVFGTGTKVTVL
notes: scFv as screened by ELISA
B2: D10 scFv (scFv, V domains shown)
VH: QVQLVQSGAEVKKPGASVKVSCKASGYTFTSYGISWVRQAPGQGLEWMGWISAYNGNTNYAQKLQGRVTMTTDTSTSTAYMELRSLRSDDTAVYYCARDRYLGWFDPWGQGTLVTVSS
VL: QSALTQPASVSGSPGQSITISCTGTSSDVGGYNYVSWYQQHPGKAPKLMIYEVSNRPSGVSNRFSGSKSGNTASLTISGLQAEDEADYYCSSYTSSSTPYVFGTGTKLTVL
notes: scFv as screened by ELISA
B3: B09 scFv (scFv, V domains shown)
VH: QVQLVQSGAEVKKPGASVKVSCKASGYTFTSYGISWVRQAPGQGLEWMGWISAYNGNTNYAQKLQGRVTMTTDTSTSTAYMELRSLRSDDTAVYYCARDLAVGTHGDYWGQGTLVTVSS
VL: QSALTQPASVSGSPGQSITISCTGTSSDVGGYNYVSWYQQHPGKAPKLMIYEVSNRPSGVSNRFSGSKSGNTASLTISGLQAEDEADYYCSSYTSSSTLEVVFGGGTKLTVL
notes: scFv as screened by ELISA
B4: E05 scFv (scFv, V domains shown)
VH: EVQLVESGGGLVQPGGSLKLSCAASGFTFSGYGMNWVRQAPGKGLEWVSYVGSSSSTIYYADSVKGRFTISRDNANNSLYLQMNSLRAEDTAVYYCARGLGGNWGQGTMVTVSS
VL: QPGLTQPPSASGAPGQRVTISCSGSRSNIGSNYVHWYQQLPGTAPKLIIYRNDQRPSGVPARFSASKSGTSASLAISGLRSEDEADYYCAAWDDGLSVLFGGGTKLTVL
notes: scFv as screened by ELISA
B5: D12 scFv (scFv, V domains shown)
VH: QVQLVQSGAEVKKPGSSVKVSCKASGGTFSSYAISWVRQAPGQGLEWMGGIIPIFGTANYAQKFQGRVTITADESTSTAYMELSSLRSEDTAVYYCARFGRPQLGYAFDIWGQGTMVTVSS
VL: ETTLTQSPGTLSVSPGDRATLSCRASQSLSADYLAWYQQKPGQAPRLLIYGASTRATGIPARFSGSGSGTEFTLTVSSLQSEDFAVYYCQQNDNWPYTFGQGTKLEIK
notes: scFv as screened by ELISA
B6: C02 scFv (scFv, V domains shown)
VH: QVQLVQSGAEVKKPGASVKVSCKASGYTFTSYGISWVRQAPGQGLEWMGWISAYNGNTNYAQKLQGRVTMTTDTSTSTAYMELRSLRSDDTAVYYCARGRGVIDYWGQGTLVTVSS
VL: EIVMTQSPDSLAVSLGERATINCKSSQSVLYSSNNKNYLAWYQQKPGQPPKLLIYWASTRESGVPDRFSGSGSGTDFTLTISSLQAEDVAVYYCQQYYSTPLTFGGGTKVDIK
notes: scFv as screened by ELISA
B7: F05 scFv (scFv, V domains shown)
VH: QVQLVQSGAEVKKPGASVKVSCKASGYTFTSYGISWVRQAPGQGLEWMGWISAYNGNTNYAQKLQGRVTMTTDTSTSTAYMELRSLRSDDTAVYYCARGRGSFDPWGQGTLVTVSS
VL: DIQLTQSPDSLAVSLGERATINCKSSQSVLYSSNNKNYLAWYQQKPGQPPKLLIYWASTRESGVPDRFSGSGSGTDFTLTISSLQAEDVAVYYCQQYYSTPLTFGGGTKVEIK
notes: scFv as screened by ELISA
B8: B11 scFv (scFv, V domains shown)
VH: QVQLVQSGAEVKKPGSSVKVSCKASGGTFSSYAISWVRQAPGQGLEWMGGIIPIFGTANYAQKFQGRVTITADKSTSTAYMELSSLRSEDTAVYYCARNVRLPGWFDPWGQGTLVTVSS
VL: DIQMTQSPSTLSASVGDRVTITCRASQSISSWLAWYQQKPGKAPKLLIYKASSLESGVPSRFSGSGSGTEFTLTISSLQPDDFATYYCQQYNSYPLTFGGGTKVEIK
B9: C12 scFv (scFv, V domains shown)
VH: QVQLVQSGAEVKKPGSSVKVSCKASGGTFSSYAISWVRQAPGQGLEWMGGIIPIFGTANYAQKFQGRVTITADESTSTAYMELSSLRSEDTAVYYCATLGRELSFDYWGQGTLVTVSS
VL: DIVMTQSPSSLSASVGDRVTITCRASQSISSYLNWYQQKPGKAPKLLIYAASSLQSGVPSRFSGSGSGTDFTLTISSLQPEDFATYYCQQSYSESWTFGQGTTVDIK
notes: scFv as screened by ELISA
B10: E02 scFv (scFv, V domains shown)
VH: QMQLVQSGAEVKKPGSSVKVSCKASGGTFSSYAISWVRQAPGQGLEWMGGIIPIFGTANYAQKFQGRVTITADESTSTAYMELSSLRSEDTAVYYCATMSVAGPSISFDYWGQGTLVTVSS
VL: DIQMTQSPSSLSASVGDRVAIPCRASQSISSYLNWYQQKPGKAPKLLIYAASSLQRGVPSRFSGSGSGTDFTLTISSLQPEDFATYYCQETYSNLWTFGQGTKVEIK
notes: scFv as screened by ELISA
B11: C11 scFv (scFv, V domains shown)
VH: EVQLVESGGGVVQPGRSLRLSCAASGFTFSSYGMHWVRQAPGKGLEWVAVISYDGSNKYYADSVKGRFTISRDNSKNTLYLQMNSLRAEDTAVYYCARGDYSDTSGTDFFQHWGQGTQVTVSS
VL: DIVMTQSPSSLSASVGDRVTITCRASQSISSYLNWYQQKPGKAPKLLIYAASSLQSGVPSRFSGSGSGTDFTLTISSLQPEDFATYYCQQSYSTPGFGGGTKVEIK
notes: scFv as screened by ELISA
B12: E03 scFv (scFv, V domains shown)
VH: QVQLVQSGAEVKKPGSSVKVSCKASGGTFSSYAISWVRQAPGQGLEWMGGITPIFGTANYAQKFQGRVTITADESTSTAYMELSSLRSEDTAVYYCARAGILTGYYFDYWGQGTLVTVSS
VL: NFMLTQPHSVSESPGKTVTISCTRSSGSIASNYVQWYQQRPGSSPTTVIYEDNQRPSGVPDRFSGSIDSSSNSASLTISGLKTEDEADYYCQSYDSSNRPWVFGGGTKLTVL
notes: scFv as screened by ELISA

How the values were obtained:
Test in all cases: ELISA, scFv, secondary screening
human IGFBP5 = molecular target: T5, human IGFBP5 (human, UniProt P24593 21-272)
T5 construct: Bought protein; in BLI it was in solution; also called hIGFBP-5
T5 sequence (P24593 21-272 limits assumed): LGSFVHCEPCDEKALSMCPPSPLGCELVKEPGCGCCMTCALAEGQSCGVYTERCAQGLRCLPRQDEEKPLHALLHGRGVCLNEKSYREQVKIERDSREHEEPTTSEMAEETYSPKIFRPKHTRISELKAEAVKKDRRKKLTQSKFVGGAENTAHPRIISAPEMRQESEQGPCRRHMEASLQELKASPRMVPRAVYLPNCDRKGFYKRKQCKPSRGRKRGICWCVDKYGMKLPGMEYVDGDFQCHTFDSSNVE
Procedure: (§1) At the end of the discovery process, each selection output was screened for antigen-specific antibodies and the binding characteristics of monoclonal antibody clones was analysed. For this purpose, 3072 single colonies were used for scFv antibody production. […] 192 of those ELISA positive clones were selected for a secondary screening. For that purpose, a second batch of scFv were produced and tested on a broader panel of antigens: Streptavidin+biotinylated human IGFBP5, Streptavidin+biotinylated murine IGFBP5, Streptavidin, BSA, Human IGFBP1, Human IGFBP2, Human IGFBP3, Human IGFBP4, Human IGFBP5 and Human IGFBP6. […] Binding to human IGFBP1, human IGFBP2, human IGFBP3, human IGFBP4 and human IGFBP6 was not detected. […] The scFv DNA sequence was amplified by PCR and cloned into YUMAB's mammalian scFv-Fc expression vector, resulting in a genetic fusion of the scFv with a human IgG4 Fc. Bacterial clones with a correctly cloned scFv gene were used for isolation of transfection grade DNA. The DNA was used for the transient transfection of HEK cells which produced and secreted the antibody into the culture medium. The antibodies were purified by affinity chromatography (Protein A) and re-buffered in PBS. The protein concentration was determined by UV/VIS spectrometry and purity was checked by Coomassie staining. 13 of the 15 antibodies could be successfully produced in the scFv-Fc format.

mouse IGFBP5 = molecular target: T6, mouse IGFBP5 (mouse, UniProt Q07079 20-271)
T6 construct: Bought protein; in solution in BLI; also called mIGFBP-5; murine IGFBP5
T6 sequence (Q07079 20-271 limits assumed): as the sequence (P24593 21-272 limits assumed) above, with R87G, V90T, I116V, I157V, S159P, L183F, T245A counted along it
Procedure: as §1

human IGFBP1 = molecular target: T1, human IGFBP1
Procedure: as §1

human IGFBP2 = molecular target: T2, human IGFBP2
Procedure: as §1

human IGFBP3 = molecular target: T7, human IGFBP3 (human, UniProt P17936 28-291)
T7 construct: Bought protein
T7 sequence (P17936 28-291 limits assumed): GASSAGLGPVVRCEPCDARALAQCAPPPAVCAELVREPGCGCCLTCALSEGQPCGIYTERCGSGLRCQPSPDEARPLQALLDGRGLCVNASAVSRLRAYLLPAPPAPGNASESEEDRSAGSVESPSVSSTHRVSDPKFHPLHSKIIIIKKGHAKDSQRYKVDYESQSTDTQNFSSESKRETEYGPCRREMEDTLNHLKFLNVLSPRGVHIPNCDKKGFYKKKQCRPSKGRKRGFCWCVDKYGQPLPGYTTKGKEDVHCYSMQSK
Procedure: as §1

human IGFBP4 = molecular target: T3, human IGFBP4
Procedure: as §1

human IGFBP6 = molecular target: T4, human IGFBP6
Procedure: as §1

Binder | binding result (human IGFBP5) | binding result (mouse IGFBP5) | binding result (human IGFBP1) | binding result (human IGFBP2) | binding result (human IGFBP3) | binding result (human IGFBP4) | binding result (human IGFBP6)
B1 | binds | binds | no binding | no binding | no binding | no binding | no binding
B2 | binds | binds | no binding | no binding | no binding | no binding | no binding
B3 |  |  | no binding | no binding | no binding | no binding | no binding
B4 | binds | binds | no binding | no binding | no binding | no binding | no binding
B5 | binds | binds | no binding | no binding | no binding | no binding | no binding
B6 | binds | binds | no binding | no binding | no binding | no binding | no binding
B7 | binds | binds | no binding | no binding | no binding | no binding | no binding
B8 | binds | binds | no binding | no binding | no binding | no binding | no binding
B9 | binds | binds | no binding | no binding | no binding | no binding | no binding
B10 | binds | binds | no binding | no binding | no binding | no binding | no binding
B11 | binds | binds | no binding | no binding | no binding | no binding | no binding
B12 | binds | binds | no binding | no binding | no binding | no binding | no binding
